From PMC10720262 (Cell Reports, 2023)

B1: CL-513041 (antibody, V domains shown)
VH: QEHLVESGGGVVQPGRSLRLSCAASGFTFSNSGMHWVRQAPGKGLEWVAVIWYDGSNKFYADSVRGRFTISRDNSNNTLYLQMNSLRAEDTALYYCARDRLFSGSWNWFDPWGQGTLVTVSS
VL: EIVLTQSPATLSLSPGERATLSCRASQSVSTYLAWYQQKPGQAPRLLIYDASNRATGIPARFSGSGSGTDFTLTISSLEPEDFAVYYCQQRSNWFTFGGGTKVEIK
B2: CL-515341 (antibody, V domains shown)
VH: QVYLVESGGGVVQPGKSLRLSCAASGFTFSNYGMHWVRQAPGKGLEWVAIIWHDGSNKFYSDSVRGRFTISRDNSQNTLYLQMNSLSAEDTALYFCAKDIGYSNTWDYFDYWGQGTLVTVSS
VL: EIVLTQSPATLSLSPGERATLSCRASQSVNSFLAWYQQKPGQAPRLLIYDASNRATDIPDRFSGSGSGTDFTLTIRSLEPEDFAVYFCQQRSKWFTFGGGTTVEMK
B3: CL-514716 (antibody, V domains shown)
VH: QIQLVESGGGVVQPGRSLRLSCAASGFTFSTYGMHWVRQAPGKGLEWVAVIWYDGSNKYYADSVQGRFTISRDNSKNTLYLQMNSLRAEDTAIYYCTTVGPIPFDYWGQGTLVTVSS
VL: DIVMTQTPLSSPVILGQPASISCRSSQSLVHSSGNTYLSWLQQRPGQPPRLLIYKTFKRLSGVPDRFSGSGAGTDFTLKISRVEAEDVGVYYCLQSTQFPLTFGGGTKVEIK
B4: CL-513701 (antibody, V domains shown)
VH: QVQLVESGGGVVQTGRSLRLSCTASGFIFSNYGMYWVRQAPGKGLEWVALIWYDGSNKYYVDSVKGRFTISRDNSKNTLYLQMNSLRAEDTAVYYCARAGKYSGSGSYLDSWGQGTLVTVSS
VL: DIQMTQSPSSVSASVGDRVTITCRASQGISSWLAWYQQKPGKAPKLLIYTASSLQSGVPSRFSGSGSGTDFTLTISSLQPDDFATYFCQQYSRYWTFGQGTKVEIK
B5: CL-513691 (antibody, V domains shown)
VH: QVQLVESGGDVVQTGRSLRLSCAASGFTFSNYGMHWVRQAPDKGLEWVAIIWYDGSNKFYADSVKGRFTISRDNSKNTLYLHIHSLRAEDTAVYYCARDDRGDSAGPYFVYWGQGTLVTVSS
VL: EIVMTQSPATLSVSPGERATLSCRASQSVSDNLAWYQQRPGQAPRLLIYGASIRATGIPARFGGSGSGTEFTLTISILQSADFAVYYCQQHDSWPWTFGQGTKVEIK
B6: CL-513808 (antibody, V domains shown)
VH: QVQLVESGGGVVQPGRSLRLSCAASGFTFSNYGMHWVRQAPGKGLEWVAIIWYDGSNKFYADSVKGRFTISRDNSKNTLYLQMNSLRAEDTAVYYCARDDRGHSYGPYFDFWGQGTLVTVSS
VL: EIVMTQSPATLSVSPGERATLSCRASQSVSSNLAWYQQKPGQAPRLLIYGASIRATGIPARFSGSGSGTEFTLTISILQSEDFAVYYCQQCNNWPWTFGQGTKVEIK
B7: CL-513094 (antibody, V domains shown)
VH: QVQLVESGGGVVQPGRSLRLSCAASGFTFSGSGMHWVRQAPGRGLEWVAIIWYDGSHKYYVDSVQGRFIISRDNSKNTLYLEMNNLRVEDTAVYYCVRAYPSGSSNDKYGMDVWGQGTTVTVSS
VL: not shown
B8: CL-512871 (antibody, V domains shown)
VH: QVLLVESGGGVVQPGRSLRLSCAASGFTFSNYGMHWVRQAPGKGLEWVALIRYDGINKFYADSVKGRFTISRDNSENTLYMQINSLRAEDTAMYYCAKAYNTSSDYYYGMDVWGQGTTVTVSS
VL: DIQMTQSPSTLSASVGDRVTITCRASQSISTWLAWYQQKPGKAPKLLIYKASRLESGVPSRFSGSGSGTEFTLTISSLQPDDLATYYCQQFNSYWTFGQGTKVEIR
B9: CL-513274 (antibody, V domains shown)
VH: QVQLVESGGGVVQPGRSLRVSCAASGFTFSNYGMYWVRQAPGKGLEWVALIWHDGSNKFYEDSVKGRFTISRDNSKNTLYLQMNSLRAEDTAVYYCARAGYFQGSGSFLDYWGQGTLVTVSS
VL: DIQMTQSPSTLSASVGDRVTITCRASQSISTWLAWYQQKPGKAPKLLIYKASSLESGVPSRFSGSGSGTEFTLTISSLQPDDFATYFCQQYSSYWTFGQGTKVEIK
B10: CL-513462 (antibody, V domains shown)
VH: QVQLVESGGGVVQPGRSLRVSCAASGFTFSNYGMYWVRQAPGKGLEWVAVIWHDGTNKFYEDSVKGRFTISRDNSKNTLYLQMNSLRAEDTAVYYCARAGYFQGSGSFLDYWGQGTLVTVSS
VL: DIQMTQSPSTLSASVGDRVTITCRASQSISSWLAWYQQKPGKAPKLLIYKASSLESGVPSRFSGSGSGTEFTLTISSLQPDDFATYFCQQYSSYWTFGQGTKVEIK
B11: CL-514146 (antibody, V domains shown)
VH: QVQLVESGGGVVQPGRSLRLSCAVSGFTFSNSGMHWVRQAPGKGLEWVAIIWYDGNNKFYADSVKGRFTISRDNSKNTLYLQMNSLRAEDTSIYYCARAYPSGNYGDKYGMDVWGQGTTVTVSS
VL: DIQMTQSPSTLSASVGDRVTITCRASQSISSWLAWFQQKPGNAPKLLIYKASSLESGVPSRFSGSGSGTEFTLTINSLQPDDFATYYCQQYNSFWTFGQGTKVEIK
B12: CL-513069 (antibody, V domains shown)
VH: QVQLVESGGGVVQPGKSLRLSCEASGFTFSNYGMHWVRQAPGKGLDWVAIIWHDGGNKFYADSVRGRFTISRDNSKNTLFLQMNSLRAEDSAVYYCARVFDFRDSCYTMDVWGQGTTVTVSS
VL: DIQMTQSPSTLSASVGDRVTITCRASQSISSWLAWYQQKPGKAPKLLIYKASSLESGVPSRFSGSGSGTEFSLTISSLQPDDFATYYCQQYTRYWTFGQGTRVEIQ
B13: CL-514174 (antibody, V domains shown)
VH: QVQLVESGGGVVQPGRSLRLSCVASGFTFSGSGMHWVRQSPGKGLEWVAIIWYDGSNKFYADSVQGRFTISRDNSKNTLYLQMNSLRVEDTGVYYCARAYLSGNYGDKYGMDVWGQGTTVTVSS
VL: DIQMTQSPSTLSASVGDRVTITCRASQSISSWLAWFQQKPGKAPKLLIYKASSLESGVPSRFSGSGSGTEFTLTINSLQPDDFATYFCQQYNYYWTFGQGTKVEIK
B14: CL-515284 (antibody, V domains shown)
VH: QVQLVGSGGGVVQSGRSLRLSCAASGFTFSNFGMHWVRQTPDKGLEWLAIIWYDGSHKFYVDSVKGRFTISRDNSMNTLFLQMNSLRAEDTGVYYCVRSWNYADSKYGMDVWGQGTTVTVSS
VL: DIQMTQSPSTLSASVGDRVTITCRASQSISSWLAWYQQKPGKAPNLLIYKASSLESGVPSRFSGSGSGTEFTLTISSLQPDDFATYYCQQYYNYWTFGQGTKVEIK
B15: CL-513780 (antibody, V domains shown)
VH: QVQLVESGGGVVQPGRSLRLSCTASGFIFSNYGMYWVRQAPGKGLDWVALIWYDGSNKYYVGSVKGRFTISRDNSKNTLYLQMNSLRAEDTAVYYCARAGKYSGSGSYLDSWGQGTLVTVSS
VL: DIQMTPSPSILSASVGDRVTITCRASQNISSWLAWYQQKPGKAPKLLIYKASSLESGVPSRFSGSGSGTEFTLTISSLQPDDFATYFCQQYYSYWTFGQGTKVEIK
B16: CL-513279 (antibody, V domains shown)
VH: QVQLVESGGGVVQPGRSLRLSCAASGFTFSNFGMHWVRQAPVKGLEWVALIWYDGSNKFYADSVQGRFTISRDNSKNILYLQMNSLRAEDTAVYYCAKVEARGVDYHSYGMDVWGQGTTVTVSS
VL: DIQMTQSPSTLSASVGDRVTITCRASQSISSWLAWYQQKPGKAPQLLIYKASSLESGVPSRFSGSGSGTEFTLTISSLQPDDFATYYCQQYKYYWTFGQGTKVEIK
B17: CL-513809 (antibody, V domains shown)
VH: QVQLVESGGGVVQPGRSLRLSCAASGFIFSNYGMYWVRQTPDKGLEWVALIWYDGNNKFYSDSVKGRFTVSRDNSKNTLYLQMNSLRDEDTALYYCARAGYFYGSGSSLDKWGQGTLVTVSS
VL: DIQMTQSPSTLSASVGDRVSITCRASQSISIWLAWYQQKPGKAPKLLIYKASSLESGVPSRFSGSGSGTEFTLTISSLQPDDFATYYCQQYNSYWTFGQGTKVEIK
B18: CL-513617 (antibody, V domains shown)
VH: QVQLVESGGGVVQPGRSLRLSCAASGFIFSNYGMYWVRQTPDKGLEWVALIWYDGGNKFYSDSVKGRFTVSRDNSKNTLYLQMNSLRDEDTALYYCARAGYFYGSGSSLDKWGQGTLVTVSS
VL: DIQMTQSPSTLSASVGDRVSITCRASQSISIWLAWYQQKPGKAPKLLIYKASSLESGVPSRFSGSGSGTEFSLTISSLQPDDFATYYCQQYNRYWTFGQGTKVEIK
B19: CL-531325 (antibody, V domains shown)
VH: QVHLVESGGGVVQPGKSLRLSCAASGFTFSNFGMHWVRQAPGKGLEWVALIWYDGSHKFYADSVQGRFTISRDNSKNTLFLQMNSLRAEDTAIYYCAKVISYGSVNYYNNYKYTMDVWGQGTTVTVSS
VL: not shown
B20: CL-531286 (antibody, V domains shown)
VH: QVQLVESGGGLVQPGRSLRLSCAASGFTFSSSGMHWVRQAPGKGLEWVAVIWYDGSNKFYADSVKGRFTISRDNSKNTLYLQMNSLRAEDTAVYYCARSGYDILTGYFNFFDPWGQGTLVTVSS
VL: EIVLTQSPGTLSLSPGERATLSCRASQSVSSSHLAWYQQKPGQAPRLLIYGASSRATGIPDRFSGSGSGTDFTLTISRLEPEDFAVYYCHQYVSSFTFGPGTKVDFK
B21: CL-531237 (antibody, V domains shown)
VH: QVQLVESGGGVVQPGTSLRLSCVASGFTFSNFGIHWFRQAPGKGLEWVSLIWYDGKNKFYAESVTGRFTISRDNSKNTVYLQMSSLRAEDTAVYYCARSYYYDSGNYFDYWGQGTLVTVSS
VL: DIQMTQSPSSVSASVGDRITITCRASQGISSRLAWFQQKPGKAPNFLIYGTSSLQSGVPSRFSGSGSGTDFTLTISSLQPEDSATYYCQQANSYPWTFGQGTKVEIK
B22: CL-531271 (antibody, V domains shown)
VH: QVQLVESGGGEVQPGRSLRLSCAASGFTFSNYGMHWVRQAPGKGLEWVALIWYDGNNKFYADSVNGRFTISRDNSNNTLYLQMNSLRAEDTGVYYCARSFYYVSGNFFDYWGQGTLVTVSS
VL: DIPMTQSPSSVSASVGDRVTITCRASQGISTWLAWYQQKPGKAPKFLIYAASSLQSGVPSRFSGSGSGTDFTLTIYSLQPEDFATYYCQQGNSFPWTFGQGTKVEIK
B23: CL-513083 (antibody, V domains shown)
VH: QVQLVESGGGVVQPGRSLRLSCAASGFTFSNYGMHWVRQAPGRGLEWVAIIWYDGSNKYYEDSVKGRFTISRDNSKNTLYLQMNSLRAEDTAVYYCARAQWLDQRHYHYTMDVWGQGTTVTVSS
VL: not shown

Biological target: recombinant full-length PfCSP (Plasmodium falciparum circumsporozoite protein, strain NF54) (Plasmodium falciparum NF54, UniProt P19597)
Sequence (P19597 20-375): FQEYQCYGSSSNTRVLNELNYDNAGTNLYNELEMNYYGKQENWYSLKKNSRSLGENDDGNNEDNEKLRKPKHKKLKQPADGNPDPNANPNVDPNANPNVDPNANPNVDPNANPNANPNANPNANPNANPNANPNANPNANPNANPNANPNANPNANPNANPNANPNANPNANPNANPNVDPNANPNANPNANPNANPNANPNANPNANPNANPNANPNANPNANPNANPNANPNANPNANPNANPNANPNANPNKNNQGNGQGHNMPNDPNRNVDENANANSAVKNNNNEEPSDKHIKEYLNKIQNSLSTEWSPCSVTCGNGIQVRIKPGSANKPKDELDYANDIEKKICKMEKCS

Binding result, binds:
B1, B2, B3, B4, B5, B6, B7, B8, B9, B10, B11, B12, B13, B14, B15, B16, B17, B18, B19, B20, B21, B22, B23
